# Source: patent US20190212340A1, “AN ELISA-LIKE ASSAY FOR QUANTIFYING ENZYMATIC ACTIVITIES OF MONO-ADP-RIBOSYLTRANSFERASES” (University of Southern California, priority 2016, published 2019)
# B1: PARP15 (Homo sapiens) (protein)
# chain: MGHHHHHHIEGRNLPEHWTDMNHQLFCMVQLEPGQSEYNTIKDKFTRTCSSYAIEKIERIQNAFLWQSYQVKKRQMDIKNDHKNNERLLFHGTDADSVPYVNQHGFNRSCAGKNAVSYGKGTYFAVDASYSAKDTYSKPDSNGRKHMYVVRVLTGVFTKGRAGLVTPPPKNPHNPTDLFDSVTNNTRSPKLFVVFFDNQAYPEYLITFTA
# notes: The catalytic domains of PARP15 (residue 481-678); His6 (N); Factor Xa cleavage site (IEGR) (N); made in house; host or cells: E. coli BL21 (DE3)
# Columns and labels:
# [1] = substrate: NC(=O)c1ccc[n+]([C@@H]2O[C@H](COP(=O)([O-])OP(=O)(O)OC[C@H]3O[C@@H](n4cnc5c(N)ncnc54)C(O)[C@H]3O)[C@H](O)C2O)c1; assay: Enzyme kinetics of PARP15-catalyzed automodification by MLISA (Experiment No. 2); assay type: biochemical, human; conditions: other: 500 nM PARP15, NAD+ 5-400 μM, Michaelis-Menten fit; pH 7.4
# Protocol: To characterize enzyme kinetics, 96-well plates were coated with reactions in triplicates that consist of 500 nM of PARP15 and NAD^+ at varied concentrations (5, 10, 20, 30, 40, 200, and 400 μM) in reaction buffer (50 mM Tris-HCl, pH 7.4, 2 mM DTT). The reactions were quenched with 20% ice-cold TCA at different time points (0, 2.5, 5, 7.5, 10, 12.5, 15, and 20 minutes). The plates were further incubated for up to 2 hours under room temperature followed by five washes with 200 μL of PBST. Kinetic parameters were calculated by fitting data to Michaelis-Menten model implemented in GraphPad Prism.
# To determine reaction rates, standard curves were generated for each reaction plate. […] Upon additions of Coomassie Plus (Bradford) assay reagents to clear 96-well pureGrade plates, the absorbance at 595 nm of each well was measured by Synergy H1 Hybrid Multi-Mode Microplate Reader. The concentrations of automodified PARP15 were calculated through fitting to linear regression curves generated with BSA standards. Standard curves were constructed through linear correlation of the determined concentrations of automodified PARP15 with the fluorescence intensities of the corresponding wells measured on 96-well ELISA plates.
# [2] = substrate: NC(=O)c1ccc[n+]([C@@H]2O[C@H](COP(=O)([O-])OP(=O)(O)OC[C@H]3O[C@@H](n4cnc5c(N)ncnc54)C(O)[C@H]3O)[C@H](O)C2O)c1; assay: Km determination of PARP15 automodification by M2-based ELISA (Experiment No. 1); assay type: biochemical, human; conditions: other: 500 nM PARP15, NAD+ 5 μM to 4 mM; pH 7.4
# Protocol: 96-well ELISA plates were coated with reactions in triplicates consisting of 500 nM PARP15 with various concentrations of NAD^+ (5, 10, 20, 30, 40, 200, 400, 1000, 2000 and 4000 μM) in Reaction Buffer (50 mM Tris-HCl, pH 7.4, 2 mM dTT). The reactions were quenched with 20% ice-cold TCA at various time points (0 to 20 minutes). The plates were further incubated for up to 2 hour under room temperature followed by five washes of PBST.
# PARP15 automodification assay was performed by adding 50 μg/ml PARP15 to Reaction Buffer with 500 μM NAD^+ in a microcentrifuge tube for 2 hours. Automodified PARP15 was diluted and plated simultaneously on both the ELISA plate and clear pureGrade plate according to manufacturer's protocol. Upon addition of Coomassie Plus (Bradford) Assay Reagent the absorbance of each well was measured on a Synergy H1 Hybrid Multi-Mode Microplate Reader (BioTek, VT). The concentrations of automodified PARP15 in each well were determined through linear regression curve using BSA standards. A standard curve was constructed through a linear correlation of automodified PARP15 concentrations and the corresponding fluorescence signals.
protein,measurement,setting,value
B1,Km,[1],4.5 ± 2.9 µM
same,kcat,[1],0.000183 ± 1.7e-05 s⁻¹
same,Km,[2],7.148 ± 3.138 µM
